Laboratory results: patent EP1012307B1, “ZYMOGENIC PROTEASE PRECURSORS THAT CAN BE AUTOCATALYTICALLY ACTIVATED AND THEIR USE” (Roche Diagnostics GmbH, priority 1997, dated 1999)
Peptide text beside a SMILES is read from it. * marks the point of attachment. pNA = O=[N+]([O-])c1ccc(N*)cc1; Tos = Cc1ccc(S(=O)(=O)*)cc1

Assays:
Experiment in all cases: Trypsin activity with Chromozym TH as substrate, kinetic constants kcat and Km
[1] = molecular target: T1, humanes Trypsin I, Trypsinvariante rTRYI-VGR (Aktivierungspeptid ValGlyArg, autokatalytisch aktiviert) (Homo sapiens, UniProt P07477); type: biochemical; settings: Substrat: Chromozym®TH; 25°C, 50 mmol/l Tris-HCl, 150 mmol/l NaCl, 5 mmol/l CaCl2, 0,1% PEG 8000, pH 8,0
T1 construct: kodierend für Trypsin I von Aminosäureposition 24-247; made in house
Procedure: Das N-terminale native Trypsinogen I Prosegment AlaProPheAspAspAspAspLys wurde durch das Aktivierungspeptid ValGlyArg ersetzt. Das TRYI-VGR Trypsinvariantengen wurde analog wie das TRYI-GPK Trypsinvariantengen mittels PCR-Technik hergestellt.
(§1) Die Aktivitätsbestimmung von Trypsin wurde in einem Volumen von 1 ml in 50 mmol/l Tris-HCl, 150 mmol/l NaCl, 5 mmol/l CaCl2, 0,1% PEG 8000, pH 8,0 und 0,1 mmol/l des chromogenen Substrats Chromozym®TH (Tosyl-Gly-Pro-Arg-4-pNA, Kat.-Nr. 838268, Boehringer Mannheim GmbH, Mannheim, Deutschland) bei 25°C durchgeführt. Die Reaktion wurde durch Zugabe von 1-10 µl Trypsin-haltiger Probe (0,4-4 U/ml, gelöst in 1 mmol/l HCl) gestartet und die Absorptionsänderung/min (ΔA/min) bei 405 nm (ε405 = 9,75 [mmol^-1 x 1 x cm^-1]) bestimmt. 1 Chromozym®TH Unit Trypsin ist definiert als die Menge Enzym, die 1 µmol pNitroanilin (pNA) pro min bei 25°C aus dem chromozymen Substrat freisetzt.
Die FXa Aktivitätsbestimmung wurde mit dem chromogenen Substrat Chromozym® X (0,1 mmol/l, N-Methoxycarbonyl-D-Nle-Gly-Arg-pNA, Boehringer Mannheim GmbH, Mannheim, Kat.-Nr. 789763) in einem Volumen von 1 ml bei 25°C in 50 mmol/l Tris-HCl, 150 mmol/l NaCl, 5 mmol/l CaCl2, 0,1% PEG 8000, pH 8,0, durchgeführt. […]

[2] = substrate: Cc1ccc(S(=O)(=O)NCC(=O)N2CCC[C@H]2C(=O)N[C@@H](CCCNC(=N)N)C(=O)Nc2ccc([N+](=O)[O-])cc2)cc1; type: biochemical, human; settings: other: Substrat: Chromozym®TH, 25°C, 50 mmol/l Tris-HCl, 150 mmol/l NaCl, 5 mmol/l CaCl2, 0,1% PEG 8000, pH 8,0
Text: Durch Einführung einer zusätzlichen Disulfidbrücke wurde das humane Trypsin I Isoenzym verändert. Dazu wurde die Aminosäure Pro an Position 132 und die Aminosäure Tyr an Position 233 zu Cys mutiert (Aminosäuresequenz-Nummerierung entsprechend der Publikation von Emi, M. et al. (Gene 41 (1986) 305-310)). Durch diese 2 Punktmutationen (P132C und Y233C) kann sich eine zusätzliche 6-te Disulfidbrücke zwischen den erfindungsgemäß eingeführten Cysteinresten an Position 132 und 233 ausbilden. Zudem wurde die Aminosäure Pro an der Position 133 zu Ala mutiert (P133A).
as §1
(§2) Die FXa Aktivitätsbestimmung wurde mit dem chromogenen Substrat Chromozym® X (0,1 mmol/l, N-Methoxycarbonyl-D-Nle-Gly-Arg-pNA, Boehringer Mannheim GmbH, Mannheim, Kat.-Nr. 789763) in einem Volumen von 1 ml bei 25°C in 50 mmol/l Tris-HCl, 150 mmol/l NaCl, 5 mmol/l CaCl2, 0,1% PEG 8000, pH 8,0, durchgeführt. Die Reaktion wurde durch Zugabe von 1-10 µl rFXa-haltiger Probe (0,4-4 U/ml) gestartet und die Absorptionsänderung/min (ΔA/min) bei 405 nm (ε405 = 9,75 [mmol^-1 x 1 x cm^-1]) gemessen. 1 Unit (U) FXa Aktivität ist definiert als die Menge Enzym, die 1 µmol pNA pro min bei 25°C aus dem chromozymen Substrat freisetzt. Die Aktivität und die kinetischen Konstanten wurden aus der linearen Anfangssteigung gemäß der Michaelis-Menten-Gleichung bestimmt. Die Ergebnisse zeigt Tabelle 1. Tabelle 1

[3] = substrate: Cc1ccc(S(=O)(=O)NCC(=O)N2CCC[C@H]2C(=O)N[C@@H](CCCNC(=N)N)C(=O)Nc2ccc([N+](=O)[O-])cc2)cc1; type: biochemical, Schweine; settings: other: Substrat: Chromozym®TH, 25°C, 50 mmol/l Tris-HCl, 150 mmol/l NaCl, 5 mmol/l CaCl2, 0,1% PEG 8000, pH 8,0
Procedure: as §1, §2

For Cc1ccc(S(=O)(=O)NCC(=O)N2CCC[C@H]2C(=O)N[C@@H](CCCNC(=N)N)C(=O)Nc2ccc([N+](=O)[O-])cc2)cc1 [Chromozym®TH, Tosyl-Gly-Pro-Arg-4-pNA] (Tos-Gly-Pro-Arg-pNA), the kcat [1] was 95 ± 1 s⁻¹.

B1: humanes Trypsin I, Trypsinvariante rTRYI-GPK-SS (P132C, P133A, Y233C; zusätzliche Disulfidbrücke) (Homo sapiens; P132C/P133A/Y233C) (protein)
chain: IVGGYNCEENSVPYQVSLNSGYHFCGGSLINEQWVVSAGHCYKSRIQVRLGEHNIEVLEGNEQFINAAKIIRHPQYDRKTLNNDIMLIKLSSRAVINARVSTISLPTACAATGTKCLISGWGNTASSGADYPDELQCLDAPVLSQAKCEASYPGKITSNMFCVGFLEGGKDSCQGDSGGPVVCNGQLQGVVSWGDGCAQKNKPGVYTKVCNYVKWIKNTIAANS
notes: kodierend für Trypsin I von Aminosäureposition 24-247; the Lys is residue 23) (N, cleaved yes); made in house
With B1 the Km [2] was 19 ± 1 µM, the kcat [2] was 99 ± 2 s⁻¹ and the kcat/Km [2] was 5,2 1/µM/s.

B2: Schweine Trypsin (Sigma-Aldrich Chemie GmbH, Kat.-Nr. T-7418) (Sus scrofa) (protein)
chain: IVGGYTCAANSIPYQVSLNSGSHFCGGSLINSQWVVSAAHCYKSRIQVRLGEHNIDVLEGNEQFINAAKIITHPNFNGNTLDNDIMLIKLSSPATLNSRVATVSLPRSCAAAGTECLISGWGNTKSSGSSYPSLLQCLKAPVLSDSSCKSSYPGQITGNMICVGFLEGGKDSCQGDSGGPVVCNGQLQGIVSWGYGCAQKNKPGVYTKVCNYVNWIQQTIAAN
notes: purchased Sigma-Aldrich Chemie GmbH T-7418
B2 was tested, and the Km [3] was 8.5 µM, the kcat [3] was 97 ± 3 s⁻¹ and the kcat/Km [3] was 11,4 1/µM/s.
